Data on one molecule can be found in patent US9205136B2, “Human aminoacyl-tRNA synthetase polypeptides useful for the regulation of angiogenesis” (THE SCRIPPS RESEARCH INSTITUTE, priority 2000, dated 2015).

Where only a bound is given, the exact number is not on record here.

For one test, the system named is MPs. The test can be described thus: MP TNFα production (ELISA of culture supernatant). Type of test: cell-based, human. Particulars: 1 nM sample protein, 14 hours. Here is the method:
Cells for the various cytokine assays described were prepared from acid citrate dextrose-treated blood of normal healthy volunteers. Human PMNs were isolated from the blood by centrifugation (700×g) over Histopaque 1077 and 1119 (Sigma). […] This procedure was repeated twice. Human MPs were isolated by centrifugation on Histopaque 1077 (Sigma). The mononuclear fraction was obtained, washed twice in Hanks' balanced salt solution, resuspended in RPMI-1640 medium (Sigma) containing 10% heat-inactivated fetal bovine serum (Sigma), plated in tissue culture flasks, and incubated in a 6% CO2 incubator at 37° C. for 1-2 hours (Kumagai et al., 1979, J. Immunol. Methods 29:17-25). Nonadherent cells were removed by washing the flasks three times with Hanks' balanced salt solution, and adherent cells were harvested by incubation with calcium-magnesium free phosphate-buffered saline containing 2 mM EDTA for 15 minutes at 4° C., followed by extensive washing.
MP TNFα production was examined following incubation of 10^5 MPs with 1 nM of sample protein for 14 hours. Aliquots of the culture supernatant were then assayed for TNFα production using a TNFα enzyme-linked immunosorbent assay kit (Sigma). Each determination shown in FIG. 2 represents the mean of four measurements from at least three independent experiments.
A general note: An ELISA detects its analyte on a solid surface through an enzyme-linked reagent.

The target in another test is T1, type A IL-8 receptor (Homo sapiens, UniProt P25024).
T1 construct: expressed in transfected cells; host or cells: RBL2H3 rat basophilic leukemia cells
T1 sequence (P25024 1-350): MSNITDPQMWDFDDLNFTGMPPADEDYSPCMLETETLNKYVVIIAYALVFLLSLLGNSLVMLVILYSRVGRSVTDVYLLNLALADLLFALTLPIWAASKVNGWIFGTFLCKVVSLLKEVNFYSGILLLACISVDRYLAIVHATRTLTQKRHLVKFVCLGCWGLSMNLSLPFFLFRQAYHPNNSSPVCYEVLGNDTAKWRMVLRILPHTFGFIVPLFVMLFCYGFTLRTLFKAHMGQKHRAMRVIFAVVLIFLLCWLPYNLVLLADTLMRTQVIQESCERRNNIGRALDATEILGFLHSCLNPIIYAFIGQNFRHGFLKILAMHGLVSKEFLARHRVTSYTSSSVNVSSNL
Put plainly: Binding to RBL2H3 cells transfected with IL-8 receptor type A. Particulars: read-out: Kd on cells expressing the type A IL-8 receptor; transfected RBL2H3 rat basophilic leukemia cells. As for the experimental part:
(§1) Following incubation, cells were separated from unbound radioactivity as described herein.
(§2) Untransfected RBL2H3 cells express neither the type A nor type B receptors.

Another test has as its target T2, type B receptor (Homo sapiens, UniProt P25025).
T2 construct: expressed in transfected cells; host or cells: RBL2H3 rat basophilic leukemia cells
T2 sequence (P25025 1-360): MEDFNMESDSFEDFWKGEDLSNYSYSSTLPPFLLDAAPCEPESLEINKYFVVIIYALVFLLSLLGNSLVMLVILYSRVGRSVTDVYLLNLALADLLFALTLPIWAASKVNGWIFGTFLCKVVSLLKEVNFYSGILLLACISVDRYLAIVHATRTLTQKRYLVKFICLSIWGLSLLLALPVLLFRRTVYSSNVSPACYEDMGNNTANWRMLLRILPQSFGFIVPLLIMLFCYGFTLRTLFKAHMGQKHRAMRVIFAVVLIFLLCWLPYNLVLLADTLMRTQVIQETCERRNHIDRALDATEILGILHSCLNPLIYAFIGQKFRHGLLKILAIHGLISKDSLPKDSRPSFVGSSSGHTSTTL
Put plainly: Binding to RBL2H3 cells transfected with IL-8 receptor type B. Particulars: transfected RBL2H3 rat basophilic leukemia cells; read-out: Kd on cells expressing the type B receptor. As for the experimental part: as §1, §2

Test [1] deals with human umbilical vein endothelial cells (HUVECs). Put plainly: HUVEC migration assay (modified Boyden chamber). Format: cell-based. To be noted: 50 nM TyrRS molecule or 0.5 nM VEGF165, 6 hours. Here is the method: In contrast, α-chemokines lacking the ELR motif act as angiostatic factors (id.). In order to evaluate the angiogenic activity of TyrRS, which contains the ELR motif, human full-length TyrRS and human mini TyrRS were first examined for their ability to induce endothelial cell migration. Such angiogenic assays were performed using human umbilical vein endothelial cells (HUVECs) (Clonetics, Walkersville, Md.). Cells were maintained in EGM-2® BULLETKIT® medium (Clonetics) in an atmosphere of 6% CO2 at 37° C. according to the supplier's instructions.
Cell migration assays were performed using the modified Boyden chamber (6.5 mm Transwells) with polycarbonate membranes (8.0 μm pore size) (Costar Corp., Cambridge, Mass.) (Masood et al., 1999, Blood 93:1038-44). Wells were coated overnight with 25 μg/mL human fibronectin (Biosource International, Camarillo, Calif.) in PBS and then allowed to air-dry. HUVECs were suspended in Dulbecco's modified Eagle's medium (DMEM) (Gibco-BRL, Gaithersburg, Md.) containing 0.1% BSA (Sigma) and 2×10^5 cells per well were added to the upper chamber. The chemotactic stimulus (50 nM of a given TyrRS molecule or 0.5 nM of human vascular endothelial growth factor-165 (VEGF165) (Biosource International, Camarillo, Calif.)) was placed in the lower chamber, and the cells were allowed to migrate for 6 hours at 37° C. in a 6% CO2 incubator. After incubation, non-migrant cells were removed from the upper face of the Transwell membrane with a cotton swab and migrant cells, those attached to the lower face, were fixed in methanol and visualized with the HEMACOLOR® stain set (EM Diagnostic Systems, Gibbstown, N.J.). Migrating cells were counted in high-power fields (HPFs). HUVECs were suspended in media with the inhibitor for 30 minutes before placement in the chamber. Each determination shown in FIG. 16 represents the average of nine HPF measurements.

In test [2] the test system is chick chorioallantoic membrane (CAM). The test can be described thus: In vivo angiogenesis assay in chick chorioallantoic membrane (CAM). Particulars: 250 ng TyrRS molecule or 25 ng VEGF165 on filter disk, 72 hours. As for the experimental part:
In vivo angiogenesis assays were conducted in chick chorioallantoic membrane (CAM) (Nicolaou et al., 1998, Bioorg. Med. Chem. 6:1185-208). Ten-day-old chick embryos were purchased from Mcintyre Poultry (Lakeside, Calif.) and were incubated at 37° C. and 70% humidity. A small hole was made with a small crafts drill (Dremel, Emerson Electric, Racine, Wis.) directly over the air sac at the end of the egg. The embryos were candled to determine a location to drill a second hole directly over embryonic blood vessels. […] A window was cut in the eggshell over the dropped CAM, exposing the CAM to direct access for experimental manipulation. Cortisone acetate-treated 5 mm filter disks were soaked with a particular protein sample (25 ng of VEGF165 or 250 ng of a given TyrRS molecule) and the filter disks added directly to the CAMs, which were relatively devoid of preexisting blood vessels. The windows were sealed with sterile tape and incubated at 37° C. […] After 72 hours, the CAM tissue associated with the filter disk was harvested and quantified using a stereomicroscope. Angiogenesis was assessed as the number of visible blood vessel branch points within the defined area of the filter disks. Each determination shown in FIG. 17 represents the mean from 5-8 embryos.

B1: mini TyrRS: truncated TyrRS, residues 1-364 of full-length TyrRS, amino-terminal catalytic domain (protein)
chain: MGDAPSPEEKLHLITRNLQEVLGEEKLKEILKERELKIYWGTATTGKPHVAYFVPMSKIADFLKAGCEVTILFADLHAYLDNMKAPWELLELRVSYYENVIKAMLESIGVPLEKLKFIKGTDYQLSKEYTLDVYRLSSVVTQHDSKKAGAEVVKQVEHPLLSGLLYPGLQALDEEYLKVDAQFGGIDQRKIFTFAEKYLPALGYSKRVHLMNPMVPGLTGSKMSSSEEESKIDLLDRKEDVKKKLKKAFCEPGNVENNGVLSFIKHVLFPLKSEFVILRDEKWGGNKTYTAYVDLEKDFAAEVVHPGDLKNSVEVALNKLLDPIREKFNTPALKKLASAAYPDPSKQKPMAKGPAKNSEPEEVILEHHHHHH
modifications: His6 tag; Human mini TyrRS in pET20B
notes: truncated TyrRS, residues 1-364 of full-length TyrRS, amino-terminal catalytic domain
B1: in the test on MPs, the “MP TNFα production” value is given as “did not stimulate production”. Moreover, the Kd with type A IL-8 receptor was 8 nM; with type B receptor it was more than 200 nM. In test [1], the HUVEC chemotaxis entry is recorded as “stimulated induction of HUVEC chemotaxis”. The “in vivo angiogenesis in chick CAM (blood vessel branch points)” value in test [2] is recorded as “induced angiogenesis”.

One may read the Kd as the constant that tells how readily two partners part at equilibrium.
